Experimental data taken from US20200095340A1.
Substitutions are numbered along the chain they refer to. Blank lines part the entries; values can stand above or below the binder they belong to.

Key:
[1] = molecular target: human DLL3 on DLL3 expressing cancer cell lines (human) (UniProt Q9NYJ7); experiment: cell-based or functional assay
[2] = molecular target: biotinylated version of human DLL3 protein expressed as a human IgG1 fusion protein (human) (UniProt Q9NYJ7); experiment: Octet BLI, biotinylated DLL3-IgG1 on streptavidin tips, single 50 nM
Sequence of biotinylated version of human DLL3 protein expressed as a human IgG1 fusion protein (human) (Q9NYJ7 27-492 limits assumed): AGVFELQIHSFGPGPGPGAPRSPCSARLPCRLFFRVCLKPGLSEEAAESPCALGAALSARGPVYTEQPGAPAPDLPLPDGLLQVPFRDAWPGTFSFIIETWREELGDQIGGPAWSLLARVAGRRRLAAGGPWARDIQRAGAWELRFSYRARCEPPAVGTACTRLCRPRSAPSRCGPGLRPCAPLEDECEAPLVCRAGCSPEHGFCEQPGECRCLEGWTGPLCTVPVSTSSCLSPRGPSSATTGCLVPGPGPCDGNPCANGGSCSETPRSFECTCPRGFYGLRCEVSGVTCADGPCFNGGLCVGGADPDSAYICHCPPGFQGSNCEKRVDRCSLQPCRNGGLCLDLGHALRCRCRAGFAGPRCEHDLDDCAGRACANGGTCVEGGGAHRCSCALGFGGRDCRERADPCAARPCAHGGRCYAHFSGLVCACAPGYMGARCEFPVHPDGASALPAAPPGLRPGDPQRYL

Sequence of human DLL3 on DLL3 expressing cancer cell lines (human) (Q9NYJ7 27-618 limits assumed): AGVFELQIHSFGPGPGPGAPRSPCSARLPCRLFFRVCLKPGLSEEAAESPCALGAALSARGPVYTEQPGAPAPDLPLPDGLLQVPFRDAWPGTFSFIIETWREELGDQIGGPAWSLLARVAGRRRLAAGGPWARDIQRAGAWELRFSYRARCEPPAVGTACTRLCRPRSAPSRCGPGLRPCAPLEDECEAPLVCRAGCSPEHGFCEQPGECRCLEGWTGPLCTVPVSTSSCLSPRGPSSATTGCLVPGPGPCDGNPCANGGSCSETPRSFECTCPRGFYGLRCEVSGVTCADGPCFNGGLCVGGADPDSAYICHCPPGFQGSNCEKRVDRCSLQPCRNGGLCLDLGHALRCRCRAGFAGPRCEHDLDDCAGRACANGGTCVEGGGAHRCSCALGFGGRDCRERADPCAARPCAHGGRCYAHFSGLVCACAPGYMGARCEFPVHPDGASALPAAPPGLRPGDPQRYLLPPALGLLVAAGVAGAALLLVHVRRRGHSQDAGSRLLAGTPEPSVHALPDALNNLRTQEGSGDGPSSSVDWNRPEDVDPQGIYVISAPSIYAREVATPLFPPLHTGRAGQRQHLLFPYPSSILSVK

B2: anti-DLL3 trispecific protein containing 4A010 (protein, part only; not given: anti-CD3 and anti-albumin domains, part only)
chain, part: EVQLVESGGGLVQPGGSLTLSCAASGSSVRFLSMAWYRQAPGKKRELVAGISADGSTVYIDSVKGRFTISRDNAKNSVYLQMNSLRAEDTAVYYCYAYRWTTRYKYWGQGTLVTVSSGGGGSGGGSGGGGSGGGSHHHHHH
Kd [2]: 2.3 nM

B4: anti-DLL3 trispecific protein containing 1H012 (protein, part only; not given: anti-CD3 fragment and anti-albumin sdAb, part only)
chain, part: EVQLVESGGGLVQPGGSLTLSCVASGSTSSINAMGWYRRAPGKQRELVAGISSDGSKVYVDSVKGRFTISRDNAKNSVYLQMNSLRAEDTAVYYCYYFRTVSGSSMPYWGQGTLVTVSSGGGGSGGGSGGGGSGGGSHHHHHH
TDCC EC50, DMS-153 cells [1]: 28 nM | fold increase in TDCC potency over DH43 [1]: > 7 fold

Now from value to binder:

TDCC EC50, DMS-153 cells [1]: 36 nM | fold increase in TDCC potency over DH6 [1]: > 8 fold
B1: anti-DLL3 trispecific protein containing 4H011 (protein, part only; not given: CD3 binder and albumin binder, part only)
chain, part: B2 chain, part with R30S, F31R, A53V, V58D, Y104L, K105T

Kd [2]: 64 nM
B3: anti-DLL3 trispecific protein containing 4H05 (protein, part only; not given: CD3 binder and albumin binder, part only)
chain, part: B2 chain, part with R30S, F31R, D54R, V58D, Y104S, K105T
